Measurements reported in PMC4720517, “Structural basis for activation, assembly and membrane binding of ESCRT-III Snf7 filaments” (eLife, 2015).

T1: full-length Snf7^(R52E E95K E102K E109K) (Saccharomyces cerevisiae, UniProt P39929 1-240, R52E | E95K | E102K | E109K)
T1 construct: Snf7 (Vps32), S. cerevisiae, full length, charge inversion on α2/3; source: E. coli BL21 or C41, purified (TALON, Superdex-200)
T1 sequence (looked up): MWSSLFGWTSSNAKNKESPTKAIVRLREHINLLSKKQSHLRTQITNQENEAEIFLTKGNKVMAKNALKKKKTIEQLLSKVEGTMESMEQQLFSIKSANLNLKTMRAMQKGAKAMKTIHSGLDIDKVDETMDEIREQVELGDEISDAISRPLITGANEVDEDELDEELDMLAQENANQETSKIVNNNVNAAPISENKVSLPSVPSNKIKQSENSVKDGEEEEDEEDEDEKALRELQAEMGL

B1: full-length Snf7^(R52E E88C H118C), MTSL-labeled (natural protein, Saccharomyces cerevisiae, UniProt P39929 1-240, looked up)
chain: MWSSLFGWTSSNAKNKESPTKAIVRLREHINLLSKKQSHLRTQITNQENEAEIFLTKGNKVMAKNALKKKKTIEQLLSKVEGTMESMCQQLFSIESANLNLETMRAMQEGAKAMKTICSGLDIDKVDETMDEIREQVELGDEISDAISRPLITGANEVDEDELDEELDMLAQENANQETSKIVNNNVNAAPISENKVSLPSVPSNKIKQSENSVKDGEEEEDEEDEDEKALRELQAEMGL
modifications: MTSL nitroxide spin label on cysteines 88 and 118
notes: Snf7 (Vps32), S. cerevisiae, full length; also called double-labeled Snf7^(R52E E88C H118C); source: E. coli BL21 or C41, purified (TALON, Superdex-200)
B2: full-length Snf7^(R52E K60C A66C), MTSL-labeled (natural protein, Saccharomyces cerevisiae, UniProt P39929 1-240, looked up)
chain: MWSSLFGWTSSNAKNKESPTKAIVRLREHINLLSKKQSHLRTQITNQENEAEIFLTKGNCVMAKNCLKKKKTIEQLLSKVEGTMESMEQQLFSIESANLNLETMRAMQEGAKAMKTIHSGLDIDKVDETMDEIREQVELGDEISDAISRPLITGANEVDEDELDEELDMLAQENANQETSKIVNNNVNAAPISENKVSLPSVPSNKIKQSENSVKDGEEEEDEEDEDEKALRELQAEMGL
modifications: MTSL nitroxide spin label on cysteines 60 and 66
notes: Snf7 (Vps32), S. cerevisiae, full length; also called double-labeled Snf7^(R52E K60C A66C); source: E. coli BL21 or C41, purified (TALON, Superdex-200)

How the values were obtained:
[1] = biological target: the molecule itself; experiment: crystal structure; Snf7^core crystals, conformation A (2.4 Å) and B (1.6 Å), space group P2_1, one molecule in the asymmetric unit; protofilaments formed in the crystal lattice; grown at pH 5.5 (MES:NaOH, NaCl, PEG20,000), 4 °C
[2] = biological target: the molecule itself; experiment: negative stain TEM; recombinant Snf7 proteins, protofilament formation seen by negative stain transmission electron microscopy; as in Henne et al., 2012
[3] = biological target: T1, full-length Snf7^(R52E E95K E102K E109K); experiment: as above; conditions: both partners purified
[4] = biological target: B1; experiment: DEER (pulsed dipolar ESR spectroscopy); MTSL-labeled full-length Snf7 proteins (10-30 μM), alone or diluted with unlabeled Snf7^R52E, incubated with DOPC/DOPS/PI(3)P liposomes at room temperature for 15 min, pelleted by ultracentrifugation; 150 mM NaCl, 20 mM HEPES pD7.4; DEER at 60 K; conditions: both partners purified
[5] = biological target: B2; experiment: as above; conditions: both partners purified

| Binder | binding result [2] | also measured |
| --- | --- | --- |
| Snf7^core (Saccharomyces cerevisiae Snf7 residues 12-150) (domain or fragment, UniProt P39929 12-150, looked up, Snf7 (Vps32), S. cerevisiae, core domain, residues 12-150; One molecule in the asymmetric unit; the protofilament is built by the crystal lattice; also called Snf7 core domain; open conformation A; source: E. coli Rosetta, purified (TALON, Superdex-200); not shown: His6-Sumo, N-terminal, cleaved) NAKNKESPTKAIVRLREHINLLSKKQSHLRTQITNQENEARIFLTKGNKVMAKNALKKKKTIEQLLSKVEGTMESMEQQLFSIESANLNLETMRAMQEGAKAMKTIHSGLDIDKVDETMDEIREQVELGDEISDAISRP |  | binding result [1]: binds |
| B1 | binds |  |
| full-length Snf7^(R52E R25E H29E K36E) (natural protein, Saccharomyces cerevisiae, UniProt P39929 1-240, looked up, Snf7 (Vps32), S. cerevisiae, full length, charge inversion on α1; source: E. coli BL21 or C41, purified (TALON, Superdex-200)) MWSSLFGWTSSNAKNKESPTKAIVELREEINLLSKEQSHLRTQITNQENEAEIFLTKGNKVMAKNALKKKKTIEQLLSKVEGTMESMEQQLFSIESANLNLETMRAMQEGAKAMKTIHSGLDIDKVDETMDEIREQVELGDEISDAISRPLITGANEVDEDELDEELDMLAQENANQETSKIVNNNVNAAPISENKVSLPSVPSNKIKQSENSVKDGEEEEDEEDEDEKALRELQAEMGL |  | binding result [3]: binds |
| full-length Snf7^(R52E G140C), MTSL-labeled (natural protein, Saccharomyces cerevisiae, UniProt P39929 1-240, looked up, MTSL nitroxide spin label on cysteine 140, Snf7 (Vps32), S. cerevisiae, full length; source: E. coli BL21 or C41, purified (TALON, Superdex-200)) MWSSLFGWTSSNAKNKESPTKAIVRLREHINLLSKKQSHLRTQITNQENEAEIFLTKGNKVMAKNALKKKKTIEQLLSKVEGTMESMEQQLFSIESANLNLETMRAMQEGAKAMKTIHSGLDIDKVDETMDEIREQVELCDEISDAISRPLITGANEVDEDELDEELDMLAQENANQETSKIVNNNVNAAPISENKVSLPSVPSNKIKQSENSVKDGEEEEDEEDEDEKALRELQAEMGL | binds |  |
| full-length Snf7^(R52E K35C), MTSL-labeled (natural protein, Saccharomyces cerevisiae, UniProt P39929 1-240, looked up, MTSL nitroxide spin label on cysteine 35, Snf7 (Vps32), S. cerevisiae, full length; source: E. coli BL21 or C41, purified (TALON, Superdex-200)) MWSSLFGWTSSNAKNKESPTKAIVRLREHINLLSCKQSHLRTQITNQENEAEIFLTKGNKVMAKNALKKKKTIEQLLSKVEGTMESMEQQLFSIESANLNLETMRAMQEGAKAMKTIHSGLDIDKVDETMDEIREQVELGDEISDAISRPLITGANEVDEDELDEELDMLAQENANQETSKIVNNNVNAAPISENKVSLPSVPSNKIKQSENSVKDGEEEEDEEDEDEKALRELQAEMGL | binds |  |
| full-length Snf7^(R52E T20C), MTSL-labeled (natural protein, Saccharomyces cerevisiae, UniProt P39929 1-240, looked up, MTSL nitroxide spin label on cysteine 20, Snf7 (Vps32), S. cerevisiae, full length; source: E. coli BL21 or C41, purified (TALON, Superdex-200)) MWSSLFGWTSSNAKNKESPCKAIVRLREHINLLSKKQSHLRTQITNQENEAEIFLTKGNKVMAKNALKKKKTIEQLLSKVEGTMESMEQQLFSIESANLNLETMRAMQEGAKAMKTIHSGLDIDKVDETMDEIREQVELGDEISDAISRPLITGANEVDEDELDEELDMLAQENANQETSKIVNNNVNAAPISENKVSLPSVPSNKIKQSENSVKDGEEEEDEEDEDEKALRELQAEMGL | binds |  |
| full-length Snf7^(R52E K60C), MTSL-labeled (natural protein, Saccharomyces cerevisiae, UniProt P39929 1-240, looked up, MTSL nitroxide spin label on cysteine 60, Snf7 (Vps32), S. cerevisiae, full length; source: E. coli BL21 or C41, purified (TALON, Superdex-200)) MWSSLFGWTSSNAKNKESPTKAIVRLREHINLLSKKQSHLRTQITNQENEAEIFLTKGNCVMAKNALKKKKTIEQLLSKVEGTMESMEQQLFSIESANLNLETMRAMQEGAKAMKTIHSGLDIDKVDETMDEIREQVELGDEISDAISRPLITGANEVDEDELDEELDMLAQENANQETSKIVNNNVNAAPISENKVSLPSVPSNKIKQSENSVKDGEEEEDEEDEDEKALRELQAEMGL | binds |  |
| B2 | binds |  |
| full-length Snf7^(R52E H118C), MTSL-labeled (natural protein, Saccharomyces cerevisiae, UniProt P39929 1-240, looked up, MTSL nitroxide spin label on cysteine 118, Snf7 (Vps32), S. cerevisiae, full length; source: E. coli BL21 or C41, purified (TALON, Superdex-200)) MWSSLFGWTSSNAKNKESPTKAIVRLREHINLLSKKQSHLRTQITNQENEAEIFLTKGNKVMAKNALKKKKTIEQLLSKVEGTMESMEQQLFSIESANLNLETMRAMQEGAKAMKTICSGLDIDKVDETMDEIREQVELGDEISDAISRPLITGANEVDEDELDEELDMLAQENANQETSKIVNNNVNAAPISENKVSLPSVPSNKIKQSENSVKDGEEEEDEEDEDEKALRELQAEMGL | binds |  |
| full-length Snf7^(R52E E88C), MTSL-labeled (natural protein, Saccharomyces cerevisiae, UniProt P39929 1-240, looked up, MTSL nitroxide spin label on cysteine 88, Snf7 (Vps32), S. cerevisiae, full length; source: E. coli BL21 or C41, purified (TALON, Superdex-200)) MWSSLFGWTSSNAKNKESPTKAIVRLREHINLLSKKQSHLRTQITNQENEAEIFLTKGNKVMAKNALKKKKTIEQLLSKVEGTMESMCQQLFSIESANLNLETMRAMQEGAKAMKTIHSGLDIDKVDETMDEIREQVELGDEISDAISRPLITGANEVDEDELDEELDMLAQENANQETSKIVNNNVNAAPISENKVSLPSVPSNKIKQSENSVKDGEEEEDEEDEDEKALRELQAEMGL | binds |  |
| full-length Snf7^R52E (natural protein, Saccharomyces cerevisiae, UniProt P39929 1-240, looked up, purification as in Henne et al., 2012; also called unlabeled Snf7^R52E; source: E. coli BL21 or C41, purified (TALON, Superdex-200)) MWSSLFGWTSSNAKNKESPTKAIVRLREHINLLSKKQSHLRTQITNQENEAEIFLTKGNKVMAKNALKKKKTIEQLLSKVEGTMESMEQQLFSIESANLNLETMRAMQEGAKAMKTIHSGLDIDKVDETMDEIREQVELGDEISDAISRPLITGANEVDEDELDEELDMLAQENANQETSKIVNNNVNAAPISENKVSLPSVPSNKIKQSENSVKDGEEEEDEEDEDEKALRELQAEMGL | binds | binding result [4]: binds; binding result [5]: binds |
